We go through four molecules from US20150274826A1 (ARCH ONCOLOGY, published 2015).

Experiment [1] addresses T1, human CD47 (human, UniProt Q08722 19-323).
T1 construct: whole, on cells; also called CD47 on human RBCs; CD47 on OV10 cells
In words: flow cytometry on RBCs, CHO supernatant 10 ng/ml. The gist of the method: (§1)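 RBCs incubated 60 min on ice with antibody supernatants at 10 ng/ml in PBS pH 7.2, 2.5 mM EDTA. Binding detected with FITC anti-human secondary (1 h, ice) by flow cytometry; fluorescence expressed relative to chimeric VxP037-01 reference.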

A further experiment concerns the target T2, dog CD47 (dog, UniProt A0A8I3PM61 19-310).
T2 construct: also called CD47 on dog RBCs
T2 sequence: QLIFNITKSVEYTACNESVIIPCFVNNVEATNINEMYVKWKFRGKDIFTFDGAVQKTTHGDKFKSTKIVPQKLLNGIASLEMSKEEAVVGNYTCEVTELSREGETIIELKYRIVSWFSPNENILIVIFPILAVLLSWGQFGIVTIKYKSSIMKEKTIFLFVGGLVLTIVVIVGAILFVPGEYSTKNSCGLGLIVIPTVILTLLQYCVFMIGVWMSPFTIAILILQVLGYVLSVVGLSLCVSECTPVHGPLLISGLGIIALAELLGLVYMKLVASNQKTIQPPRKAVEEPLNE
As to the kind of experiment: flow cytometry on RBCs, CHO supernatant 10 ng/ml. The gist of the method: as §1
For orientation: In flow cytometry, cells or beads pass a laser one at a time.

Another experiment concerns the target T3, rat CD47 (rat, UniProt P97829 19-303).
T3 construct: whole, on cells; also called CD47 on rat RBCs
T3 sequence (looked up): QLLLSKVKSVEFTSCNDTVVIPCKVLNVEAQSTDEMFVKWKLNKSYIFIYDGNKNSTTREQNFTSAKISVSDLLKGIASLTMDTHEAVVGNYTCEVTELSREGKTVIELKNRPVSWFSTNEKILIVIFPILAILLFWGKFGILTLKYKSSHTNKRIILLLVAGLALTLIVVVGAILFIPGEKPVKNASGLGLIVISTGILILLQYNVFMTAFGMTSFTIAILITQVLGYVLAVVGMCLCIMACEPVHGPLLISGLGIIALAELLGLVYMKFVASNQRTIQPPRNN
As to the kind of experiment: flow cytometry on RBCs, CHO supernatant 10 ng/ml. The gist of the method:
as §1

The target in the next experiment is T4, pig CD47 (pig, UniProt Q9GKE8 19-303).
T4 construct: whole, on cells; also called CD47 on porcine RBCs
T4 sequence (looked up): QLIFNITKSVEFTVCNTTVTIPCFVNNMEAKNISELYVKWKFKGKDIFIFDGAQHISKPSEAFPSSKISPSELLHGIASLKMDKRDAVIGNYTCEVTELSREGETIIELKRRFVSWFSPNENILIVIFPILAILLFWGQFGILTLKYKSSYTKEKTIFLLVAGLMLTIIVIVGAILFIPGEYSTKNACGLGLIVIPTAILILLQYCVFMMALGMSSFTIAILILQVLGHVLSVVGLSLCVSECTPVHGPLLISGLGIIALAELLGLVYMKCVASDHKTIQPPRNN
In words: flow cytometry on RBCs, CHO supernatant 10 ng/ml. The gist of the method:
as §1

Experiment [2] deals with T5, mouse CD47 (mouse, UniProt Q61735 19-303).
T5 construct: whole, on cells; also called CD47 on mouse RBCs; CD47 on 4T1 cells
T5 sequence (looked up): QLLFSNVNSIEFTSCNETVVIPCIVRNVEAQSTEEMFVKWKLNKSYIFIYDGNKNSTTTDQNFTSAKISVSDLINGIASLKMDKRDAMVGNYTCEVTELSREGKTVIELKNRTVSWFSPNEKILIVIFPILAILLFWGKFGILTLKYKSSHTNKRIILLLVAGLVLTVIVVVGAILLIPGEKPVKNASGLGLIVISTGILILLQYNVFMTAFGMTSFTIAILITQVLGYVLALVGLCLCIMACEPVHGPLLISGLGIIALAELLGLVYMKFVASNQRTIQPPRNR
As to the kind of experiment: flow cytometry on RBCs, CHO supernatant 10 ng/ml. The gist of the method: as §1

Experiment [3] addresses T1, human CD47. In words: flow cytometry on human RBCs, non-linear fit of median fluorescence. How it is done:
(§2) RBCs are incubated for 60 minutes on ice with tissue culture supernatants containing the secreted humanized antibodies at a concentration of 10 ng/ml in a solution of phosphate buffered saline, pH 7.2, 2.5 mM EDTA (PBS+E), or with various concentrations of purified antibodies. Cells are then washed with cold PBS+E, and incubated for an additional hour on ice with FITC labeled donkey anti-human antibody (Jackson Immuno Research Labs, West Grove, Pa.; Catalogue #709-096-149) in PBS+E. Cells are then washed with PBS+E, and antibody binding is analyzed using a BD FACSAria Cell Sorter (Becton Dickinson) or a C6 Accuri Flow Cytometer (Becton Dickinson). Antibody binding is quantitated by comparison of mean fluorescence values relative to that of chimeric antibody >VxP037-01LC (SEQ ID NO:7))/>VxPO37-01HC (SEQ ID NO:57). The mean fluorescence value for each antibody is divided by the mean fluorescence value for the chimeric antibody.

Experiment [4] has as its target T1, human CD47. As to the kind of experiment: flow cytometry on human RBCs, apparent Kd, non-linear fit. As to the method: as §2
The target of experiment [5] is T5, mouse CD47. In words: cell-based ELISA on mouse 4T1 cells, apparent Kd. How it is done: (§3) OV10 cells are grown in IMDM medium containing 10% heat inactivated fetal bovine serum (BioWest; S01520) and 4T1 cells are grown in RMPI medium containing 10% heat inactivated fetal bovine serum (BioWest; S01520). One day before assay, 3×10⁴ cells are plated in 96 well cell bind plates (Corning #3300, VWR #66025-626) so that they are 95-100% confluent at the time of assay. Cells are washed and various concentrations of purified antibodies added in either IMDM or RPMI at 37° C. for 1 hour in […]. Cells are then washed with media and incubated for an additional hour at 37° C. with HRP labeled secondary anti-human antibody (Promega) diluted 1/2500 in media. Cells are washed three times with PBS, and the peroxidase substrate 3,3′,5,5′-tetramethylbenzidine is added (Sigma; Catalog #T4444). Reactions are terminated by the addition of HCl to 0.7N, and absorbance at 450 nm is determined using a Tecan model Infinite M200 plate reader. The apparent binding affinities of these clones to human and mouse cells is determined by non-linear fits (Prism GraphPad software). […] Agglutination of human RBCs is assessed following incubation of human RBCs with various concentrations of humanized blocking only clones. Blood is diluted (1:50) and washed 3 times with PBS/EDTA/BSA. RBCs are added to U-bottomed 96 well plates with equal volumes of the antibodies (75 μl) and incubated for 3 hrs at 37° C. and overnight at 4° C.
(ELISA stands for enzyme-linked immunosorbent assay.)

The target in experiment [6] is T1, human CD47. As to the kind of experiment: cell-based ELISA on human OV10 cells, apparent Kd. How it is done:
as §3

T1 sequence (Q08722 19-323): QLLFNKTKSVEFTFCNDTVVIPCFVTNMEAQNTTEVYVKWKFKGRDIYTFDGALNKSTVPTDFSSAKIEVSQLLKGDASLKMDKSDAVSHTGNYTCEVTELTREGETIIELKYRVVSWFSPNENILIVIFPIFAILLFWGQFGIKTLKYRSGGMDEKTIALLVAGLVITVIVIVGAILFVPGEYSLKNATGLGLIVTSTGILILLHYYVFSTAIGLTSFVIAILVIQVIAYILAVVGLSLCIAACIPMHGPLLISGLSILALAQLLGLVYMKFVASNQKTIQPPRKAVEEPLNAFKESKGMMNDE

B1: Clone 1 (pVxK7b-037-hum01-LC / pVxK7b-037-hum01-HC) (antibody, human IgG1, kappa)
heavy: not shown
light: DIVMTQTPLSLPVTPGEPASISCRSSQSLVHSNGNTYLHWYQQKPGKAPKLLIYKVSYRFSGVPDRFSGSGSGTDFTLKISRVEAEDVGVYYCSQNTHVPRTFGQGTKVEIKRTVAAPSVFIFPPSDEQLKSGTASVVCLLNNFYPREAKVQWKVDNALQSGNSQESVTEQDSKDSTYSLSSTLTLSKADYEKHKVYACEVTHQGLSSPVTKSFNRGEC
notes: also called Cl 1
As to B1, the “mean fluorescence relative to chimeric antibody” value in the experiment with human CD47 [1] was 1.1 ratio; with dog CD47 it was 1 ratio; with rat CD47, 2.7 ratio; with pig CD47 it was 1.3 ratio; with mouse CD47 [2], 1.7 ratio. Besides, the results for the Kd in the experiment with human CD47 [3] and with human CD47 [4] were 0.226 µg/mL and 1.51 nM, respectively.

B2: Clone 13.1 (hum13 IgG1 N297Q) (antibody)
heavy: EVQLVQSGAEVKKPGESLRISCKGSGYTFTNYYVFWIRQSPSRGLEWLGDINPVNGDTNFNEKFKNRVTITADKSTSTAYMELSSLRSEDTAVYYCARGGYTMDYWGQGTLVTVSSASTKGPSVFPLAPSSKSTSGGTAALGCLVKDYFPEPVTVSWNSGALTSGVHTFPAVLQSSGLYSLSSVVTVPSSSLGTQTYICNVNHKPSNTKVDKKVEPKSCDKTHTCPPCPAPELLGGPSVFLFPPKPKDTLMISRTPEVTCVVVDVSHEDPEVKFNWYVDGVEVHNAKTKPREEQYQSTYRVVSVLTVLHQDWLNGKEYKCKVSNKALPAPIEKTISKAKGQPREPQVYTLPPSR
light: B1 light
notes: Fc mutant of Clone 13, IgG1 N297Q
Regarding B2, the Kd with human CD47 [3] was determined as 0.183 µg/mL; with mouse CD47 [5], 0.0867 nM; in the experiment with human CD47 [4] it was 1.21 nM; with human CD47 [6], 0.0886 nM.

B3: Clone 1.1 (hum01 IgG1 N297Q) (antibody)
heavy: QVQLQESGPGLVKPSQTLSLTCTVSGYTFTNYYVFWVRQARGQRLEWIGDINPVNGDTNFNEKFKNRVTISADKSISTAYLQWSSLKASDTAMYYCARGGYTMDYWGQGTLVTVSSASTKGPSVFPLAPSSKSTSGGTAALGCLVKDYFPEPVTVSWNSGALTSGVHTFPAVLQSSGLYSLSSVVTVPSSSLGTQTYICNVNHKPSNTKVDKKVEPKSCDKTHTCPPCPAPELLGGPSVFLFPPKPKDTLMISRTPEVTCVVVDVSHEDPEVKFNWYVDGVEVHNAKTKPREEQYQSTYRVVSVLTVLHQDWLNGKEYKCKVSNKALPAPIEKTISKAKGQPREPQVYTLPPSR
light: B1 light
notes: Fc mutant of Clone 1, IgG1 N297Q; also called Cl 1.1
As for B3, the Kd with human CD47 [3] worked out at 0.307 µg/mL; with mouse CD47 [5], 0.132 nM; with human CD47 [4] it was 2.04 nM; in the experiment with human CD47 [6], 0.148 nM.

B4: Clone 13 (pVxK7b-037-hum13-LC / pVxK7b-037-hum13-HC) (antibody, human IgG1, kappa)
heavy: not shown
light: B1 light
notes: also called Cl 13
Turning to B4, the “mean fluorescence relative to chimeric antibody” value stood at 1.2 ratio in the experiment with human CD47 [1]; 1 ratio with dog CD47; 3.1 ratio with rat CD47; 1.4 ratio in the experiment with pig CD47; 1.3 ratio with mouse CD47 [2]. Moreover, the Kd in the experiment with human CD47 [3] is 0.0864 µg/mL; in the experiment with human CD47 [4] it was 0.58 nM.
